Experimental data reported in publication PMC13408441, “Molecular regulation and physiological role of GOLPH3-mediated Golgi retention” (Nature Communications, 2026).

Tests used:
GOLPH3-4G = target: T1, GOLPH3-4G (Homo sapiens, UniProt Q9H4A6, F194G/F197G/L195G/L196G); assay: NMR 1H-15N HSQC titration of LCS tail peptide into 15N-labeled GOLPH3-4G; format: binding; conditions: final LCS titration point, MES pH 6.5, 250 mM NaCl, 308K
T1 construct: 10xHistidine tag (N, cleaved yes); Twin-Strep-tag (N, cleaved yes); made in house; host or cells: E. coli BL21(DE3)
Protocol: (§1) Supplemental Material for Theodoropoulou, Nasrallah, et al 2026 buffer. Pooled fractions were concentrated to the required concentration using a MWCO concentrator (Millipore) with a cutoff of 10 kDa.
(§2) Size exclusion chromatography coupled to multi-angle light scattering
(§3) The molecular weights of the tested constructs were determined by size exclusion chromatography coupled to multi-angle light scattering (SEC-MALS). The mass measurements were performed on a UltiMate3000 HPLC system equipped with a 3 angles miniDAWN TREOS static light scattering detector (Wyatt Technology). The sample volumes of 5−10 μl at a concentration of 12 mg/mL, were applied to a Superdex 200 5/150 GL column (Cytiva) previously equilibrated with 250 mM NaCl, 50 mM Tris pH 8.0, 1 mM TCEP at a flow rate of 0.08 mL/min. The data were analyzed using the ASTRA 6.1 software package (Wyatt technology), using the absorbance at 280 nm and the theoretical extinction coefficient for concentration measurements.
(§4) Nuclear Magnetic Resonance (NMR) Spectroscopy
All proteins used for NMR experiments were designed on the GOLPH3-4G background due […]
Recombinant proteins were prepared with the isotope enrichment scheme appropriate for each experiment (i.e. 15N-only or 15N, 13C) in 20 mM MES […]
buffer pH 6.5 with 250 mM NaCl and 10% 2H2O.
Protein concentrations were around 300 µM for all NMR experiments, […]
spectrometer equipped with a CPTC 1H, 13C, 15N 5 mm cryoprobe and an Avance Neo console.
CA, and C) and CB resonances were assigned using a standard procedure based on conventional 3D HNCA, HN(CO)CA, HNCO, HN(CA)CO, CBCA(CO)NH and HNCACB spectra. All spectra were acquired and processed using Bruker’s Topspin 4.0 software.
Backbone assignments were obtained through manual spectral analysis assisted by the […]
spectra acquired on single-point mutants. […]
residues are provided in Table S1 and deposited in the BMRB under ID 53516.

[1] = CD thermal denaturation of GOLPH3 proteins; format: physicochemical, human; conditions: CD at 207 nm, 20 to 95 °C at 1 °C/min, 10 μM protein, 100 mM NaCl, 50 mM Tris pH 7.4, 1 mM TCEP
Protocol: (§5) Supplemental Material for Theodoropoulou, Nasrallah, et al 2026
Isothermal titration calorimetry
Isothermal titration calorimetry (ITC) experiments were performed on a MicroCal PEAQ-ITC (Malvern Panalytical), with GOLPH3 variants being in a buffer containing 250 mM NaCl, 50 mM Tris pH 8.0 and 1 mM TCEP. LCS peptides were synthesised and delivered as lyophilised powder (Genscript). The peptides were dissolved in the protein buffer and their concentrations were calculated based upon their absorbance at 280 nm and their corresponding molar extinction coefficient. Experiments consisted of titrations of a single 0.4 µL injection followed […]
GOLPH3 proteins at a 100 μM concentration. Experiments were performed at 25 °C in triplicate (n = 3), with injection duration of 4 s, injection spacing of 150 s, stir speed of 750 rpm, and reference power of 7 μcal/s. Data were processed and plotted using MicroCal PEAQ‐ITC Analysis Software and fitted to a one‐site binding model.
(§6) Circular Dichroism Spectroscopy
(§7) Circular Dichroism Spectra of GOLPH3 proteins (at 10 μM in 100 mM NaCl, 50 mM Tris pH 7.4 and 1 mM TCEP) were collected with a Chirascan V100 (AppliedPhotophysics), using a 1 mm path length cuvette, at 20 °C, in the 200-260 nm range. Thermal denaturation experiments […]
(§8) every 1 °C, with a temperature ramp speed of 1 °C/min and an equilibration time of […]
(§9) Table S2: Fits of CD spectra to fractions of secondary structure for Golph3 WT and various mutants of it, carried out with the BestSel server

[2] = SEC-MALS of GOLPH3 constructs; format: physicochemical, human; conditions: 12 mg/mL, 250 mM NaCl, 50 mM Tris pH 8.0, 1 mM TCEP
Protocol: as §1, §2, §3, §4
All proteins used for NMR experiments were designed on the GOLPH3-4G background due to its higher stability and solubility. Recombinant proteins were prepared with the isotope enrichment scheme appropriate for each experiment (i.e. 15N-only or 15N, 13C) in 20 mM MES buffer pH 6.5 with 250 mM NaCl and 10% 2H2O. Lower salt, even by 10%, yielded much degraded spectra. […]

[3] = CD secondary structure of GOLPH3 proteins (BestSel fits); format: physicochemical, human; conditions: 10 μM, 100 mM NaCl, 50 mM Tris pH 7.4, 1 mM TCEP, 20 °C
Protocol: as §5
Isothermal titration calorimetry […]
as §6, §7, §8, §9

chemical shift perturbation, A245 (GOLPH3-4G): 0.023 p.p.m
chemical shift perturbation, A294 (GOLPH3-4G): 0.02332 p.p.m
chemical shift perturbation, D247 (GOLPH3-4G): 0.05478 p.p.m
chemical shift perturbation, D258 (GOLPH3-4G): 0.09666 p.p.m
chemical shift perturbation, E259 (GOLPH3-4G): 0.06997 p.p.m
chemical shift perturbation, H202 (GOLPH3-4G): 0 p.p.m
chemical shift perturbation, K266 (GOLPH3-4G): 0.1082 p.p.m
chemical shift perturbation, K298 (GOLPH3-4G): 0.09652 p.p.m
chemical shift perturbation, Q260 (GOLPH3-4G): 0.1208 p.p.m
chemical shift perturbation, S246 (GOLPH3-4G): 0.08006 p.p.m
chemical shift perturbation, T200 (GOLPH3-4G): 0 p.p.m
chemical shift perturbation, T201 (GOLPH3-4G): 0 p.p.m
chemical shift perturbation, T265 (GOLPH3-4G): 0.1157 p.p.m
chemical shift perturbation, T297 (GOLPH3-4G): 0.1247 p.p.m
chemical shift perturbation, Y261 (GOLPH3-4G): 0.1039 p.p.m
B1: GOLPH3-4G: mutant F194G/L195G/L196G/F197G with improved solubility (protein)
chain: MTSLTQRSSGLVQRRTEASRNAADKERAAGGGAGSSEDDAQSRRDEQDDDDKGDSKETRLTLMEEVLLLGLKDREGYTSFWNDCISSGLRGCMLIELALRGRLQLEACGMRRKSLLTRKVICKSDAPTGDVLLDEALKHVKETQPPETVQNWIELLSGETWNPLKLHYQLRNVRERLAKNLVEKGVLTTEKQNGGGGDMTTHPLTNNNIKQRLIKKVQEAVLDKWVNDPHRMDRRLLALIYLAHASDVLENAFAPLLDEQYDLATKRVRQLLDLDPEVECLKANTNEVLWAVVAAFTK
Tm / melting temperature [1]: 55 °C
oligomeric state [2]: monomeric
% alpha [3]: 36%
% beta parallel [3]: 0%
% beta-antiparallel [3]: 13%
% others [3]: 36%
% turn [3]: 15%
